# Measured values as given in the nanobody polyreactivity screen of Harvey et al. (2022).
# Experiment: yeast display, Sf9 membrane polyspecificity reagent, FACS + sequencing; frameworks hold sequencing errors
# Procedure, shortened: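 Nanobodies came from a synthetic yeast display library in Saccharomyces cerevisiae BJ5465, induced with galactose for 36–48 hours and stained for 1 hour at 4 °C with 10% biotinylated, detergent-solubilized Sf9 membrane reagent. Cells were enriched on streptavidin microbeads and then FACS-sorted, with low and high (top ~1%) gates set on anti-HA fluorescence for expression and streptavidin fluorescence for reagent binding. Each polyreactivity label reflects the gate a clone came from. Genes were amplified by colony PCR, sequenced by MiSeq 2 × 250 and filtered by CDR length.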
sequence,measurement,value
QVQLVESGGVLLQAGGSLRLSCAASGTIQYIKTMGWYRQAPGKERELVAAITYSGGSTYYADSVKGRFTISRDNAKNTVYLQRNSLKPVVTAVYYCAGDGYYGGYNYWGQGTQVTVSS,polyreactivity (PSR sort gate),low polyreactivity
QVQLVESGGALVQAGGSLRLSCAASGSTFLGYTMGWYRQAPGKERELVAAITSSGGRTYYADSVKGRFTISRDNAKYTVYLQMNSLIPEDTAVYYCATREYYPYSTRYSISYDYWGQGTQVTVSS,polyreactivity (PSR sort gate),high polyreactivity
QVQLVESGGGLVQAGGSLRLSCAASGRIFQGYAMGWYRQAPGKERELVAAISYRGASTYYADSVKGRFTISRDNAKNTVYLQMNSLKPEDTAVYYCAKVTPTSTRGHDYWGQGTQVTVSS,polyreactivity (PSR sort gate),low polyreactivity
QVQLVESGGGLVQEGGSLRLSCADSGFTSCDNDMGWYRQAPGKERELVAAISRGGSTNYADSVKGRFTISRDNAKNTFYLQMNSLKPEDSEVYYCATAAVTPVWYDYWGKGTQVTVSS,polyreactivity (PSR sort gate),low polyreactivity
QVQLVESGGGLVQAGGRLRLSCAASGYTFPLYARGWYRQAPGKERELVADINIGGASSYYADSVKGRVTISRDNAKKTVYLQMNSLKPEDTAVYYCAKEYYDGYFPTFDYDYWGQGTQVTVSS,polyreactivity (PSR sort gate),low polyreactivity
QVQLVESGGGLVQAGGSLRLSCAASGRTLLLNTMGWYRQAPGKERELFAAISWRDGSTYYADSVKRRFTISRDNAKITVYLQMNSLIPEDTAVYYCNARLSGRSPYDLRFDYWGQGTQVTVSS,polyreactivity (PSR sort gate),low polyreactivity
QVQLVESGGGLVQAGGSLRLSCAASGSIFRPYAMGWYRPAPGQDRELVAAISSSGGGTYYADSVKGRFTISRDNAKKTVYLQMNSLKPEDTAVYLYGSWGQGTQVTVSS,polyreactivity (PSR sort gate),low polyreactivity
QVQLVESGGGVVQAGGSLRLSCAASGSIFPYYVMGWYRQAPGKERELVAVISQSGGSTYYADSVKGRFTISRDNAKNTVYLQMNSLKPEDTAVYYCAAESAYDAYDYWGQGTQVTVSS,polyreactivity (PSR sort gate),high polyreactivity
QVQLVESGGRLVQAGGILRLSCAASGRIFNRYAMGWSRQAPGKEREFVARITGSGGRTYYADSVKGRFTISRDNAKNTVYLQMNSLKPEDTAVYYCARDRGYQSGYDFWGQGSQVTVSS,polyreactivity (PSR sort gate),high polyreactivity
QVQLVESGGGLVQAGGSLRLTCAASGITFYGYAMGWYRQAPGKERELVAAISKSGGSTHYADSVKGRFTISRDNAKNTVYLQMNSLKPEDTAVYYCAAAYWTRLRRMDYWGQGTQVTVSS,polyreactivity (PSR sort gate),low polyreactivity
QVQLVESGAALVQAGGSLSLSCAASGLTFYYYAMGWYRQAPGKERELVAAITSGGSTNYADSVKGRFTISRDNAKNTVFLQINSLKPEDTAVYYCAADPRYSFWGMYYWGLGTQVTVSS,polyreactivity (PSR sort gate),low polyreactivity
QVQLVESGGGLVQAGGSLRLSCAASGYTFLYYAMGWYRQAPGKEREFVAAISRSGGSTYYADSVKGRFTISRDNAKNTVYLQMISLKPEDTAVYYCAARFRYQHQRGDYWGQGTQVTVSS,polyreactivity (PSR sort gate),high polyreactivity
QVQLVESGGGLVQAGGSLRLSCASSGSTFSYYDMGWYRQAPGKERELVAAISWNGGTTYYADSVKGRFTISRDNAKNTVYLQMNSLKPEDTAVYYCAATWDFYWAPYDSWGQGTQVSVSS,polyreactivity (PSR sort gate),low polyreactivity
QVQLVESGGVLVQAGGSLRLSCAASGSIFDKAMGWSRQAPGKERELVSAITSGGITNYADSVKGRFTISRDNAKNTVYLQMNRLKPEDCAVYYCNTLSPTQTKYDYWGQGTQVSVSS,polyreactivity (PSR sort gate),low polyreactivity
QVQLVESGGGLVQAGGSLRLSCAASGRIFGVNAMGWYRPSPGKERELVADISSGGSTNYADSVKGRFTISRDNAKNTVYLQMNSLKPEDTAVYYCNARFRFRYKFPSRNSWGQGTQVTVSS,polyreactivity (PSR sort gate),high polyreactivity
QVQLVESGGGLVQAGGRLRLSCAASGSIFGGNDMGWYRQPPGKERELVAAITSSGGSTYYADSVKGRFTISRDNAKNTVYLQMYSLKPEDTAVYYCNADYYGPYRDYGYWGQGTQVTVSS,polyreactivity (PSR sort gate),low polyreactivity
QFQLVESGGGLVQAGGSLRLSCAASGRIFVLNAMGWYRQAPGKERELVAAISGSGSRTYYADSVKGRFTISRDNAKNTVYLQMNSLNPEDTAVYYCNNVSRRSEHTYDYWGQGTQVTVSS,polyreactivity (PSR sort gate),high polyreactivity
QVQLVESGGGLVQAGGSLRLSCAASGSIFSYYAMGWYRQAPGKERELVAGISISTGSTYYADSVKGRFTISRDNAKNTVYLQMNSLIPEDTAVYYCNASALDPLYAKDDYWGQGTQVTVSS,polyreactivity (PSR sort gate),low polyreactivity
QVQLVESGGGLVQAGGSLRLSCAASGSTIDWYGMGWYRQAPGKERELVAAINFSDGSTYYADSVKGRFTISRDNAKNTVYLQMNSLKPEDTAVYYCAAYTPSYGGRDYWGQGTQVTVSS,polyreactivity (PSR sort gate),low polyreactivity
QVQLVESGGGLVQAGGSLRLSCAASGSTFYYFALGWYRQAPGKERELVAAISSGGTTNYADSVKGRFTISRDNAKNTVYLQINSLKPEDTAVYYCAARFRRVRFTHYDYWGQGTQVTVSS,polyreactivity (PSR sort gate),high polyreactivity
QVQLVESGGGLVQAGGSLRLSCAASGSIIARYAMGWYRQAPGKETELVAAINSGTSTNYADSVKGRFTISRDNAKNTVYFQMHCLKPEDTEVYYCNTQWYVDNDTYTQTDYDYWGQGTQVTVSS,polyreactivity (PSR sort gate),low polyreactivity
QVQLVESGGGLVQAGGSLRLSCAASGSIFAIYAMGWYRQAPGKERELVAAISSSSGSTYYADSVKARFTISRDNAKNTVYLQMYSLKPEDTAVYYCAAESGRRIKYWRGYYYWGQGTQVTVSS,polyreactivity (PSR sort gate),low polyreactivity
QVQLVESGGGLVQAGGSLRLSCAASGINFNRYAMGWYRQAPGNERELVAAITSSGGSTHYADSVKGRFTISRDNAKNTVYLQMNSLKPEDTAVYYCAKQFPNNYRYYLHYYYWGQGTQVTVSS,polyreactivity (PSR sort gate),low polyreactivity
QVQLVESGGGFVQAGGSLRLSCAASGFTFKAYAMGLYRQAPGKERELVATINRSGTGTYYADSVKGRFTISRDYAKNTVYLLMNSLKPEDTAVYYCNKRSHHNYYTYDYWGQGTQVTVSS,polyreactivity (PSR sort gate),high polyreactivity
QVQLVESGGGLVQAGGSLRLSCAASGRIFGPYAMGWYRQAPGKERELVAAISQRGGTTYYADSVKGRFTISRDNAKNTVYLQMNSLKPEDTAVYYCAAKTYGWGQGTQVTVSS,polyreactivity (PSR sort gate),high polyreactivity
QVQLVESGGGLVQAGGSLRLSCAASGRTFTGNAMGWYRQATGKERELVAAINSGGGRTFYADSVKGRFTISRDNAKNTVYLQMTSLKPEDTAVYYCNAVKYRSYYWGQGTQVTVSS,polyreactivity (PSR sort gate),high polyreactivity
QVQLVESGGGLVQAGGSLRLSCAASGSIFEGYVMGWYRPAPGKVRELVAAISWSGGSTYYADSVKGRFTISRDNAKNTVYLQMNSLKPEDTAVYYCAAYGYDRYGRTRYNSWGQGTQVTVSS,polyreactivity (PSR sort gate),high polyreactivity
QVQLVESGGGLVQAGGSLRLSCAASGNTFVTYTMGWYRQAPGKERELVADISSGGSTYYADSVKGRFTISRDNAKNTVYLQMNSLKPEDTAVYYCAVQQAVFRSYYIYHRYYWGQGTQVTVSS,polyreactivity (PSR sort gate),high polyreactivity
QDQHVESEVGLVQAGGSLRLSCAASGSTVYPYAKGWYRKAPGKERELDAAISSGGSTYYADSVKGRFTISRDNAKNTVYLQMNSLKPEDTAVYYCAADFYYAYYWGQGSQVTVSS,polyreactivity (PSR sort gate),low polyreactivity
QVQLVESGGGLVQAGGSLRLSCAASGFIFYIYAMGWYRQAPGKEWELVAAISGGGGSTYYAASVKGRFTISRDNAKNTVYLQINSLKPEDTAVSYCAARYDVAWYSKRYSWGQGTQVTVSS,polyreactivity (PSR sort gate),high polyreactivity
QVQLVESGGGIVQAGGSLRLSCAASGSIIGPNTMGWYRQAPGKERELVAAIRGGGSTNYADSVKGRFTISRDNAKNTVYLQMNSLKPEDTAVYYCNATWNLFPGVLDRYDYWGQGTQVTVSS,polyreactivity (PSR sort gate),low polyreactivity
QVQLVESGGGLVQAGGSLRLSCAASGGIFWTYAMGWYRQAPWKERELVATITSGGSTNYADSVKGRFTISRDNAKNTVYLQMNSLKPEDTAVYYCNADWWWGYGYWGQGTQVTVSS,polyreactivity (PSR sort gate),low polyreactivity
QVQLVESGGGLVQAGGSLRLTCAASGSILIYNAMGWYRQAPGKQRELVADITNGGSTNYADSVKGRFTISRDNAKNTVYLQMHSLKPDDTAVYYCAKDAYYWWGPDYDYWGQGTQVTVSS,polyreactivity (PSR sort gate),low polyreactivity
QVQLVESGGWLDQAGGSLRLSCAASGRTLGYYAMGWYRQAPGKERELVASIRYSGGSTYADSVKGRFTISRDNAKNTVYLQMNSLKPEDTAVYYCATGDSFRCYSALSRYDYWGQGTQVTVSS,polyreactivity (PSR sort gate),high polyreactivity
QVHLLESWGGLFHAGGSPRLSCAASGRTFGRYAMGWYRQSPATERELVAAITFRGGHSYYADSVKGRFTISRDNAKNTVYFQMNSLKPEDTAVYYCAKRGGYWHKFDYWGQGTQVTVSS,polyreactivity (PSR sort gate),high polyreactivity
QVQLVESGGGLVQAGGSLRLSCAASGFTFKSYAMGWSRQAPGKERELVAAISRGGSTYYADSVKGRFTISRDNAKNTVYLQMNSLKPEDTAVYYCNKTRYSRSYYEYDYWGQGTQVTVSS,polyreactivity (PSR sort gate),low polyreactivity
QVQLVESGGGLVQAGGSLRLSCAASGFTFDQYAMGRNRQAPGKERELVAVISSGGSTYYADSVKGRFTFSRDNAKNTVYLQMNSLKQEDTAVYYCNRDRQRRYDYWGQGTQVTLSS,polyreactivity (PSR sort gate),high polyreactivity
QVQLVESGGGLVQAGGSLRLSCAASGSIFVPNTMGWYRQAPGKERELVAAIRFSSGRTYYADSVKGRFTISRDNAKNTVYLQMNSLKPEVTAVYYCAADPRYSSGITYTRFYYWGQGTQVTVSS,polyreactivity (PSR sort gate),high polyreactivity
QVQLVESGVGLVQAGGSLRLSCAASGFTFMKNAMGWYRQAPGKERELVAAITSSGGRPYYADSVKGRFTISRDIAKNTVYLQMNSLKPEDTAVYYCNKGPLPGYDYWGQGTQVTVSS,polyreactivity (PSR sort gate),high polyreactivity
QVQLVESGGGLVQAGGSLRLSCAASGFTLVLNAMGWYRQAPGKEREVVAAIRRSAGSTYYADSVKGRFTISRDNAKNTVYLQMNSLKPEDTAVYYCAAGFLWAKYAYGHWGQGTQVTVSS,polyreactivity (PSR sort gate),low polyreactivity
QVQLVESGGGLVQAGVSLRLSCAASGSTFRKYTMGWSRQAPGKERELVAAITYRGDRTYYADSVKGRFTISRDNAKNTVFIQMNSLIPEDTAVYYCASTSYYGAVWYIFYYWGQGTQVTVSS,polyreactivity (PSR sort gate),high polyreactivity
QVQLVESGGGLVQEGGSLRLICAASGSTFWANAMGWYRQEPGKERELVAAISVRGGNTYYADSVKGRFTISRDNAKNTVYLQMNSLKAEVTAVYYCAARPISWTSYYDYWGQGTQVTVSS,polyreactivity (PSR sort gate),high polyreactivity
QVQLVESGGGLVQAGGSLRLSCAASGGTITRYAMGWYRQAPGKERELVAAISSSGGSTYYADSVKGRFTISRDNAKNTVYLQMNSLKPEDTAVYYCAAEGYTLWYWLEFEYWGQGTQVTVSS,polyreactivity (PSR sort gate),high polyreactivity
